Assay results: paper PMC7610652 (Nature structural & molecular biology, 2021)

Assays:
[1] = biological target: T1, RPC2, subunit of human RNA polymerase III (human, UniProt Q9NW08 1-1133); assay: cryo-EM structure
T1 sequence: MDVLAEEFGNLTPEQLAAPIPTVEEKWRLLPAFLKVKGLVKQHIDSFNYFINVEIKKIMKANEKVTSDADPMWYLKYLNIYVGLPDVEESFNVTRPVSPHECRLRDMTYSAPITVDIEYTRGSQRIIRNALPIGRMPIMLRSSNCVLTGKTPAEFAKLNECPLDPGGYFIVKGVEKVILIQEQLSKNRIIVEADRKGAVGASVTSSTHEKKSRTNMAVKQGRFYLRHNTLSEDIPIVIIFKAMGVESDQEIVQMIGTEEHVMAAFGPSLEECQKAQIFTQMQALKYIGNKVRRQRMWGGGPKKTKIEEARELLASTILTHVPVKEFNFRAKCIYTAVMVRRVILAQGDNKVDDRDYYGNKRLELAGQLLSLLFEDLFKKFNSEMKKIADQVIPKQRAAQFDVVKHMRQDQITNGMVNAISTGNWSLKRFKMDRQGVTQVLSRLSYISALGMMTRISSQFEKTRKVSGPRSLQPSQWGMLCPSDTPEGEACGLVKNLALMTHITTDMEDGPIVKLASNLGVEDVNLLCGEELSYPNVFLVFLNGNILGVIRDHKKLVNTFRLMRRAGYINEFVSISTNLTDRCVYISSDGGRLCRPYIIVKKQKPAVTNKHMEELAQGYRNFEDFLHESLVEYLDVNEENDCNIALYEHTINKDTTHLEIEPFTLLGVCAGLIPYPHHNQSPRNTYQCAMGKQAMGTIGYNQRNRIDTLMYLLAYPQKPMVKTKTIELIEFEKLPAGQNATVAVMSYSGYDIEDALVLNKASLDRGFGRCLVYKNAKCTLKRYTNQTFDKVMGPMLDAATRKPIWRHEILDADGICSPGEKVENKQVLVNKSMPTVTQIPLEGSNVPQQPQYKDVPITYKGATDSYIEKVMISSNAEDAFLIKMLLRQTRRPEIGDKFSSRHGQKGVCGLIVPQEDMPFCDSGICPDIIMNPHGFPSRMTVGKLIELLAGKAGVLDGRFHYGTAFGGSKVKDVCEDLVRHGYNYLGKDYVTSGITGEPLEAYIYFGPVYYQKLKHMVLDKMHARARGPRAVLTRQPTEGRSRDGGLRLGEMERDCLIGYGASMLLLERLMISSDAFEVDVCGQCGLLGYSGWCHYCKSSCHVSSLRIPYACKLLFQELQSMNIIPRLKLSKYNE

[2] = biological target: RPABC5, subunit of human RNA polymerase III (human, UniProt P62875 1-67); assay: cryo-EM structure

binding result [1]: binds
binding result [2]: binds
B1: RPC5, subunit of the human RNA polymerase III heterodimer (natural protein)
chain: MANEEDDPVVQEIDVYLAKSLAEKLYLFQYPVRPASMTYDDIPHLSAKIKPKQQKVELEMAIDTLNPNYCRSKGEQIALNVDGACADETSTYSSKLMDKQTFCSSQTTSNTSRYAAALYRQGELHLTPLHGILQLRPSFSYLDKADAKHREREAANEAGDSSQDEAEDDVKQITVRFSRPESEQARQRRVQSYEFLQKKHAEEPWVHLHYYGLRDSRSEHERQYLLCPGSSGVENTELVKSPSEYLMMLMPPSQEEEKDKPVAPSNVLSMAQLRTLPLADQIKILMKNVKVMPFANLMSLLGPSIDSVAVLRGIQKVAMLVQGNWVVKSDILYPKDSSSPHSGVPAEVLCRGRDFVMWKFTQSRWVVRKEVATVTKLCAEDVKDFLEHMAVVRINKGWEFILPYDGEFIKKHPDVVQRQHMLWTGIQAKLEKVYNLVKETMPKKPDAQSGPAGLVCGDQRIQVAKTKAQQNHALLERELQRRKEQLRVPAVPPGVRIKEEPVSEEGEEDEEQEAEEEPMDTSPSGLHSKLANGLPLGRAAGTDSFNGHPPQGCASTPVARELKAFVEATFQRQFVLTLSELKRLFNLHLASLPPGHTLFSGISDRMLQDTVLAAGCKQILVPFPPQTAASPDEQKVFALWESGDMSDQHRQVLLEIFSKNYRVRRNMIQSRLTQECGEDLSKQEVDKVLKDCCVSYGGMWYLKGTVQS
